{"source": "paper PMC9240080", "about": "(Nature Communications, 2022)", "binders": {"B1": {"name": "EY6A (antibody, V domains shown)", "VH": "EVQLVESGGGVVQPGRSLRLSCAASAFTFSSYDMHWVRQAPGKGLEWVAVISYDGSNKYYADSVKGRFTISRDNSKNTLYLQMNSLRAEDTAVYYCAKDGGKLWVYYFDYWGQGTLVTVSS", "VL": "not shown"}}, "biological_target": "SARS-CoV RBD-His8-SpyTag003 (SARS-CoV, UniProt P59594, heterogeneous N-linked glycosylation)", "assay": "ELISA", "details": "both partners purified"}
{"binder": "B1", "values": [{"measurement": "binding result", "value": "binds"}]}
